Data on one substance can be found in publication PMC12804361.

The target in test [1] is VcCap5. Put plainly: AUC; sedimentation velocity, apo VcCap5 at 0.8 mg/ml, 20 mM Tris-HCl pH 7.5, 200 mM NaCl, 55,000 rpm, 20 °C; c(s) fit in SEDFIT; monomer to dimer.
Test [2] concerns the target VcCap5. Put plainly: AUC; sedimentation velocity, VcCap5 with 3'2'-cGAMP, 0.8 mg/ml, 20 mM Tris-HCl pH 7.5, 200 mM NaCl, 55,000 rpm, 20 °C; c(s) fit in SEDFIT; dimer to tetramer.

For the substance VcCap5 (enzyme), the stoichiometry N in the test with VcCap5 [1] turned out to be 2; with VcCap5 [2], 4.

One may read the stoichiometry N as a count of units in the complex or per binding partner.
